Paper PMC7641732, “Structural basis of prostate-specific membrane antigen recognition by the A9g RNA aptamer”

Biological target: human PSMA extracellular part (wtPSMA) (human, UniProt Q04609 44-750)
Experiment: X-ray crystallography 2.2 A; 2-PMPA, active-site Zn2+; IC50: 20 mM Tris, 150 mM NaCl, pH 8.0, 37 C preincubation 10 min; flow cytometry: 10 mM Tris, 150 mM NaCl, pH 7.4, 0.5% fish gelatin (inhibitor preincubation 4)
Settings: protein: recombinant; tags: N-terminal Strep-FLAG; chain copies: 2; stem-loop: S1 7 bp, 4x1 internal loop, S2 4 bp, 16-nt hairpin loop

Sequence of human PSMA extracellular part (wtPSMA) (Q04609 44-750): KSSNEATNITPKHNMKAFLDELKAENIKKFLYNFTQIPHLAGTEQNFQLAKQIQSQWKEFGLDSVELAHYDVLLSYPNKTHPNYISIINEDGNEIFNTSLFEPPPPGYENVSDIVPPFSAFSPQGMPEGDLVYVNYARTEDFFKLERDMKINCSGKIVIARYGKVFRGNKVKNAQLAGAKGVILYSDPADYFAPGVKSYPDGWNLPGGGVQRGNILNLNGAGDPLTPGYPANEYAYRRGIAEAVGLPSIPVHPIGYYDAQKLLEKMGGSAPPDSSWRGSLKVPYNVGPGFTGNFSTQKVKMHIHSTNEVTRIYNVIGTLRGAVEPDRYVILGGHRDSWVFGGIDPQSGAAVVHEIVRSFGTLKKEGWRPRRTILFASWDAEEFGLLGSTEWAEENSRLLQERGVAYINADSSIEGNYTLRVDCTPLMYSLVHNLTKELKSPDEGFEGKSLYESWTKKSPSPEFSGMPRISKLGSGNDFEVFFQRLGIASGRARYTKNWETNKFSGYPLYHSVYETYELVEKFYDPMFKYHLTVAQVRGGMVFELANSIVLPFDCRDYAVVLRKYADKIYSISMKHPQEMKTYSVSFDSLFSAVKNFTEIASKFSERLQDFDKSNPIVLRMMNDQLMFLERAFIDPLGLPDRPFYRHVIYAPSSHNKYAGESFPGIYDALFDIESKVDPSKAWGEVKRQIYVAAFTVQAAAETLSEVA

Binder: GGGACCGAAAAAGACCUGACUUCUAUACUAAGUCUACGUUCCC (structured_RNA, 2'-deoxy-2'-fluoro on all C and U) [A9g]
- binding result: binds
